Assay results published in paper PMC6279242 (Cell host & microbe, 2018).

Molecular target: T1, GST-SIK1ΔN (Arabidopsis thaliana, UniProt O24527 249-836)
T1 sequence (looked up): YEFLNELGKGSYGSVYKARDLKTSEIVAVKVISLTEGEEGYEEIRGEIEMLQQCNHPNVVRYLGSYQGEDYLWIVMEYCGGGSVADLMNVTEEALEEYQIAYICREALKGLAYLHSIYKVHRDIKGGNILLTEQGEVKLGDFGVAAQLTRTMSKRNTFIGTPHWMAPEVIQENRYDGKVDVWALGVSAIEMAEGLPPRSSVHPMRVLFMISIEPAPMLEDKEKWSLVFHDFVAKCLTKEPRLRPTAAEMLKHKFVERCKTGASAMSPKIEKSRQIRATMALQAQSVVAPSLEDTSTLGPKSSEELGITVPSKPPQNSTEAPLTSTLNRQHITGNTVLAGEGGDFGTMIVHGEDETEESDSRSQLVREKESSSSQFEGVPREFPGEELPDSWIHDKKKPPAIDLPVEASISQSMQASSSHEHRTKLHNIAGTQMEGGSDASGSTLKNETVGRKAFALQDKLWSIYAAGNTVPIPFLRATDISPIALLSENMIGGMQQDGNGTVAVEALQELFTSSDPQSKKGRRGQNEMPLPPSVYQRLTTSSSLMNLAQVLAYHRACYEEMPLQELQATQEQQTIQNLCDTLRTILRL
Assay: pull-down

B1: MBP-BIK1 (enzyme, Arabidopsis thaliana, UniProt O48814 1-395, looked up)
chain: MGSCFSSRVKADIFHNGKSSDLYGLSLSSRKSSSTVAAAQKTEGEILSSTPVKSFTFNELKLATRNFRPDSVIGEGGFGCVFKGWLDESTLTPTKPGTGLVIAVKKLNQEGFQGHREWLTEINYLGQLSHPNLVKLIGYCLEDEHRLLVYEFMQKGSLENHLFRRGAYFKPLPWFLRVNVALDAAKGLAFLHSDPVKVIYRDIKASNILLDADYNAKLSDFGLARDGPMGDLSYVSTRVMGTYGYAAPEYMSSGHLNARSDVYSFGVLLLEILSGKRALDHNRPAKEENLVDWARPYLTSKRKVLLIVDNRLDTQYLPEEAVRMASVAVQCLSFEPKSRPTMDQVVRALQQLQDNLGKPSQTNPVKDTKKLGFKTGTTKSSEKRFTQKPFGRHLV
binding result: binds
